Data reported in paper PMC314469, “Protein Interaction Networks by Proteome Peptide Scanning” (PLoS Biology, 2004).

T1: amphyphisin SH3 (AMPH_HUMAN), P49418
T1 chain: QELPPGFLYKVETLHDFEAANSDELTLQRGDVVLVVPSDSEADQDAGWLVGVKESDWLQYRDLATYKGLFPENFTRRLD


Columns and labels:
[1] = biological target: T1, amphyphisin SH3 (AMPH_HUMAN), P49418; assay: SPOT array
[2] = biological target: endophilin SH3 (SH3G2_HUMAN), Q99962; assay: SPOT array

Binder | normalised SPOT signal, Boehringer light units (BLU); mean over the file's lines of this peptide [1] | normalised SPOT signal, Boehringer light units (BLU); mean over the file's lines of this peptide [2]
PPPPPLRPPPPPPP [Q9BR93 13-27] | 283 | 1160
PPPPPPRPPKQQPP [Q9UL51 22-36] | 994 | 1160
PPPPPPRPPSRPKL [Q9BQI5 457-471] | 13700 | 13400
PPPPPPRPSKPTPS [Q14956 325-338] | 1290 | 14300
PPPPPTKPPETEAQ [Q9UJJ7 281-295] | 59.9 | 63.1
PPPRPPRPPSPPPE [Q9UPS6 163-177] | 5310 | 9410
PPPTPRRPASVNGS [O43584 96-109] | 170 | 1020
PPPVPLRPPEHFIN [Q07890 1215-1229] | 189 | 435
ASGGPRRPERHLPP [Q9Y6R0 7-20] | 3320 | 12600
PPQIPSRPVRIPPG [P50570 828-841] | 8890 | 37500
PPQPPQRPPPPTGL [O15056 1050-1064] | 1380 | 9830
PPQSPRRPELPDLA [Q00973 42-55] | 51.7 | 164
PPQVPSRPNRAPPG [Q05193 829-842] | 11000 | 19600
PPQVPSRPTRAPPR [Q9H0P3 825-838] | 6350 | 11000
PPQVPSRPTRAPPS [Q9UQ16 664-677] | 8780 | 12700
PPRKIKRPKRKMYR [Q96PV3 296-309] | 17.3 | 30.1

Binder | normalised SPOT signal, Boehringer light units (BLU); mean over the file's lines of this peptide [1] | normalised SPOT signal, Boehringer light units (BLU); mean over the file's lines of this peptide [2]
PPSAPRRPPVYYKF [O95696 129-142] | 71.5 | 2730
PPSGPLRPPATISP [Q9H4B5 83-97] | 105 | 127
PPSRPSRPPSHPSA [Q99700 586-600] | 14900 | 20300
ASGHIKRPMNAFMV [P35716 45-58] | 49 | 146
PPTPPPRPQKTHSR [O43428 338-351] | 8950 | 41100
PPTRPSRPWRDLPE [Q9UIG4 65-78] | 4300 | 14300
PPVRPARPPGPLVT [Q8WYX3 74-88] | 7480 | 6550
PPVVPRRPPAHISS [Q9NTY8 3-17] | 6110 | 17800
PPWGPFRPPYSIFQ [BAC05210 58-72] | 56.3 | 2520
PPWVPWRPPSSAAV [Q9UN47 31-45] | 829 | 835
PPYGPSRPDKKQRM [Q9HA17 357-370] | 193 | 394
PQEHPKRPVLGLES [O95862 118-131] | 20.2 | 4.5
PQGPPRRPPPHILD [Q9P2A8 24-38] | 131 | 4220
PQPGFRRPARPETQ [Q16624 63-76] | 2800 | 97
ASHPPPRPPKHPSV [BAC05194 549-563] | 848 | 5360
